The target in series [1] is MBD2b (GST-tagged, purified) (Homo sapiens, UniProt Q9UBB5 150-411). In words: EMSA; multiple shifts; EMSA: 20 mM HEPES pH 7.9, 1 mM EDTA, 3 mM MgCl2, 10 mM beta-mercaptoethanol, 10% glycerol, 0.1% Triton X-100, 2 ug BSA, 10 ng poly(dI-dC), 30 min on ice; pull-down: 150 mM NaCl, 50 mM Tris pH 8.0, 0.25% NP40, 0.5 mM DTT, poly(dI-dC), 2 h 4 C. The note with it: protein: recombinant; tags: GST; label: 32P.

Series [2] addresses RBP-J (GST-tagged, purified) (Homo sapiens, UniProt Q06330 1-500). In words: EMSA; multiple shifts; supershift with one of two antibodies; EMSA: 20 mM HEPES pH 7.9, 1 mM EDTA, 3 mM MgCl2, 10 mM beta-mercaptoethanol, 10% glycerol, 0.1% Triton X-100, 2 ug BSA, 10 ng poly(dI-dC), 30 min on ice; pull-down: 150 mM NaCl, 50 mM Tris pH 8.0, 0.25% NP40, 0.5 mM DTT, poly(dI-dC), 2 h 4 C. The note with it: protein: recombinant; tags: His/GST; label: 32P. For orientation: In EMSA bound probe runs differently from free probe, usually more slowly.

Chain of MBD2b (GST-tagged, purified) (Q9UBB5 150-411): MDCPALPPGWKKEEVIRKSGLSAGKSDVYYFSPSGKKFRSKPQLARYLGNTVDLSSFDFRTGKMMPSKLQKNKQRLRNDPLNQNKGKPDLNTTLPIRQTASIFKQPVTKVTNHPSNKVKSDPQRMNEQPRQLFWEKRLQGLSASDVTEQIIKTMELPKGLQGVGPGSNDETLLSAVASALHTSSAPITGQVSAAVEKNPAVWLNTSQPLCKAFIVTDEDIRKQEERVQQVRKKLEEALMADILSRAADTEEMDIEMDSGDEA
Chain of RBP-J (GST-tagged, purified) (Q06330 whole entry): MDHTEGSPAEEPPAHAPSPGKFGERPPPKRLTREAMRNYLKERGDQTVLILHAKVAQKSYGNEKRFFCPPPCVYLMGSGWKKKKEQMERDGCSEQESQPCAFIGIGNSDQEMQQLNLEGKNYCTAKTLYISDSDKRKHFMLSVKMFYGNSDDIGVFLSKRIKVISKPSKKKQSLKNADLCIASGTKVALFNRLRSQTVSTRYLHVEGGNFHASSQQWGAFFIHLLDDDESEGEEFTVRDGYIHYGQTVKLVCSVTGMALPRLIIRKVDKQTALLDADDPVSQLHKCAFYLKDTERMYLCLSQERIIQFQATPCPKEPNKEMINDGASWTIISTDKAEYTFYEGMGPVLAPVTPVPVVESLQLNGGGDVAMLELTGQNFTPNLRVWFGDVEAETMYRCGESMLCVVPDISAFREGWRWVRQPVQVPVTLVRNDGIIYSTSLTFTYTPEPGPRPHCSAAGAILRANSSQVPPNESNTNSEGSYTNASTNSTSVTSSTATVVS

B1: GSTP1 CpG-island oligo, methylated (EMSA) (dsDNA)
DNA 1: AAGCAGACACTGGCAGGTTTCGGCGGGAGTCCGCGGGACCCTCCAGAAGAGCGGCCGGCGCCGTGACCTAAGGCTAAGGCTCATA
DNA 2: TTTATGAGCCTTAGCCTTAGGTCACGGCGCCGGCCGCTCTTCTGGAGGGTCCCGCGGACTCCCGCCGAAACCTGCCAGTGTCTGC
modifications: 5-methylcytosine at CpG (M.SssI)
Regarding B1, the binding result in series [1] and in series [2] was “binds” in each case.
